The values that follow come from patent US20220133849A1.

The target of the test is Maxi-K channel of rat bladder detrusor smooth muscle (endogenous) (rat) (UniProt Q62976). Description: cell-based or functional assay.
Sequence of UniProt Q62976 (Q62976 whole entry): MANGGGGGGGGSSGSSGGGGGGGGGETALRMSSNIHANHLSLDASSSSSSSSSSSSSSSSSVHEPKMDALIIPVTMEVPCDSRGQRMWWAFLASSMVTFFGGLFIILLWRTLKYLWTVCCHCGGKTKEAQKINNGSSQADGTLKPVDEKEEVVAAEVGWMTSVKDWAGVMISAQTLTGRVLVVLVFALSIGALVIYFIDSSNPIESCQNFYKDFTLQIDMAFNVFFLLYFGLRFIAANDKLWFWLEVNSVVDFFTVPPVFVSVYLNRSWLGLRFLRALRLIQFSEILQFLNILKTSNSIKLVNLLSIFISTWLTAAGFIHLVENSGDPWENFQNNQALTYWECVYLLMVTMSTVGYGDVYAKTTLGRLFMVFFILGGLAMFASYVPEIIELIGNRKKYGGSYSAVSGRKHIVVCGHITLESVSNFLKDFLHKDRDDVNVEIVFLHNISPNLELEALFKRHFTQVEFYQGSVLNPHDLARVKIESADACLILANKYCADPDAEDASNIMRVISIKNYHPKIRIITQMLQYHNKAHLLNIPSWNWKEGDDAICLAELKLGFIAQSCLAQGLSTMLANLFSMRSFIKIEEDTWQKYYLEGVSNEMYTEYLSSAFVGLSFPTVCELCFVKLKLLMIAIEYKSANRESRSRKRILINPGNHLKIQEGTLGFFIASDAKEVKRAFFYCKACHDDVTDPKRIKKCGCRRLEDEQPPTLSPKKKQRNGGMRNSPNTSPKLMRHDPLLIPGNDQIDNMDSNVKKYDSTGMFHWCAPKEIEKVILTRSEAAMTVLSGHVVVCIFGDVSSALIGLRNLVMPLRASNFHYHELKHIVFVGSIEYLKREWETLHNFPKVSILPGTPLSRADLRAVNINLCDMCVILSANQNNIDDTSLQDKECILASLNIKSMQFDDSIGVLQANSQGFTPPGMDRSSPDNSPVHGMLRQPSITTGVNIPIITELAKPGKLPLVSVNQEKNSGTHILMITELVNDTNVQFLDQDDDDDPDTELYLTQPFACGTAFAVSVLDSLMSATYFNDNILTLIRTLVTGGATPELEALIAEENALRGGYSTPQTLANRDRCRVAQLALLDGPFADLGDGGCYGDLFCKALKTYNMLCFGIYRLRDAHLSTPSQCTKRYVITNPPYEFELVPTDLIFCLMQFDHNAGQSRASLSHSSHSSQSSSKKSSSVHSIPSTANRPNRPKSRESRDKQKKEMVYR

Turning to “iberiotoxin (from UniProt P24663 1-37) (peptide)”, the outward current in response to applied voltage, single whole-cell patch clamp of isolated rat detrusor cells, 300 nM IBTX was above 50%.
